# Measured values from US6737058B2, “Methods for inhibiting endothelial cell and fibrinogen mediated inflammation using fibrinogen specific antibodies” (The Scripps Research Institute, priority 1992, dated 2004).
# No end group written: not given here.
# Columns and labels:
# ICAM-1 = ICAM-1 (Homo sapiens, UniProt P05362); experiment: 125I-labeled γ3 binding to ICAM-1 CHO transfectants
# Experimental: A variant polypeptide γ3 (KYG-γ3) duplicating the fibrinogen γ chain sequence 117-133 N^117NQKIVNLKEKVAQLEA^133 (SEQ ID NO 2) was synthesized with the addition of Lys-Tyr-Gly residues at the amino terminus to facilitate radiolabeling of the polypeptide (KYGN^117NQKIVNLKEKVAQLEA^133, SEQ ID NO 4). The variant γ3 and L10 polypeptides were synthesized as described in Example 7A. Typically, 2 mg of KYG-γ3 were iodinated with 5 mCi ^125I-Na (Amersham, Arlington Heights, Ill.) by the IODO-GEN method (Fraker et al., Biochem Biophys Res Commun., 80:849-857, (1978)) for 45 min at 4° C. Free radioactivity was separated from polypeptide-bound radioactivity by gel-filtration over a Bio-Gel P-2 column (Bio-Rad, Richmond, Va.) which had been preequilibrated with PBS, pH 7.2, containing 0.01% BSA, with a flow rate of 0.2 ml/sec.
# Confluent monolayers of ICAM-1 CHO transfectants or wild type (WT) CHO cells were incubated in serum-free RPMI 1640 medium with increasing concentrations of ^125I-labeled γ3 peptide (10-150 μg/ml) in the presence of 1 mM CaCl2 and 1 mM MgCl2 for 45 min at 22° C. Cells were washed with three rapid changes of serum-free RPMI 1640, solubilized in 10% SDS, and radioactivity associated under the various conditions tested was quantitated in a beta-counter. […]
# WT CHO cells = experiment: 125I-labeled γ3 binding to wild type CHO cells; set-up: species or system Chinese Hamster; conditions: 50 μg/ml
# Experimental: Confluent monolayers of ICAM-1 CHO transfectants or wild type (WT) CHO cells were incubated in serum-free RPMI 1640 medium with increasing concentrations of ^125I-labeled γ3 peptide (10-150 μg/ml) in the presence of 1 mM CaCl2 and 1 mM MgCl2 for 45 min at 22° C. Cells were washed with three rapid changes of serum-free RPMI 1640, solubilized in 10% SDS, and radioactivity associated under the various conditions tested was quantitated in a beta-counter. Non specific binding was assessed in the presence of a 100-fold molar excess unlabeled γ3 peptide, or control peptide L10 added at the start of incubation, and was subtracted from the total as described above.
# ICAM-1+ JY lymphocytes = experiment: Adhesion of 51Cr-labeled JY lymphocytes to peptide-coated wells; type: cell-based; conditions: wells coated with 1-100 μg/ml peptide, 45 min at 37° C.
# Experimental: Ninety-six well assay plates (Costar, Cambridge, Mass.) were coated with increasing concentrations (1-100 μg/ml) of the polypeptides γ3 and L10 in PBS, pH 7.2, for 18 h at 4° C. Wells were washed in PBS, pH 7.2 and blocked with 3% gelatin for 60 min at 37° C.
# Serum-free suspensions of JY lymphocytes were labeled with 0.5 mCi ^51Cr (Na2CrO4, specific activity 487.4 mCi/mg, E. I., DuPont de Nemours, Wilmington, Del.) for 2 h at 37° C., with a final incorporation of 0.2-4 cpm/cell (Languino, et al., supra). Aliquots of ^51Cr-labeled JY lymphocytes at 1×10^6/ml were added to peptide-coated wells for 45 min at 37° C., washed, solubilized in 20% SDS, and radioactivity associated under the various conditions was determined in a scintillation beta-counter. The number of attached cells was quantitated by dividing the cpm harvested by the cpm/cell. Data are the mean ± S.D. of two independent experiments.
# [1] = molecular target: T1, ICAM-1 receptor on JY lymphocytes (Homo sapiens, UniProt P05362); experiment: Inhibition of JY lymphocyte adhesion to γ3-coated plates by monoclonal antibodies; type: cell-based; conditions: plates coated with 20 μ/ml peptide, no antibody
# T1 construct: endogenous in cells; host or cells: JY lymphocytes (51Cr-labelled)
# Experimental: Binding inhibition assays were performed using radiolabeled ICAM-1^+ JY lymphocytes and the γ3 polypeptide. […] The peptides used in this assay were the γ3 and irrelevant polypeptide L10 prepared as described in Example 7A.
# Ninety-six well assay plates were coated with 20 μ/ml of the polypeptides γ3 and L10 and the ^51Cr-labeled JY lymphocytes were prepared as described above. The ^51Cr-labeled JY lymphocytes were preincubated with saturating concentrations (25 μg/ml) of monoclonal antibodies anti-ICAM-1 1G12, 2D5, or 6E6; or anti-EPR-1 6A11 before incubation in the […] plates. Binding of radiolabelled JY lymphocytes was measured after a 45 min maintenance period in the presence of the monoclonal antibodies in the γ3 peptide-coated plate. Background binding was assessed by the incubation of ^51Cr-labeled JY lymphocytes which had not been preincubated with a monoclonal antibody in the L10 peptide-coated plate. Data are the mean ± S.D. of replicates of two independent experiments.
# HUVEC [2] = experiment: Adhesion of terminally-differentiated 51Cr-labeled HL-60 cells to resting HUVEC with plasma adhesive proteins; type: cell-based, human; conditions: for adhesion of differentiated HL-60 cells to HUVEC relative to cells not equilibrated with an adhesive protein: 150 μ/ml protein, fMLP 10 μM, 30 min at 22° C.
# Experimental: The effect of fibrinogen, vitronectin, and fibronectin on the interaction of terminally-differentiated HL-60 and monocytic THP-1 cells with HUVEC was determined as described in Languino, supra. Briefly, serum-free suspensions of HL-60 or THP-1 cells were labeled with ^51Cr as described in Example 81A to a final incorporation of 0.2-4 cpm/cell. After washes in PBS, pH 7.2, aliquots of the HL-60 cells were resuspended in serum-free RPMI 1640 at 1.5×10^6/ml and stimulated with 10 μM of the chemoattractant formyl-methionyl-leucyl-phenylalanine (fMLP, Sigma, St. Louis, Mo.) and equilibrated with 150 μ/ml fibrinogen, vitronectin, or fibronectin in the presence of 1 mM CaCl2 for 20 min at 22° C. Equilibrated HL-60 were added to resting HUVEC monolayers that had been previously incubated with fresh complete culture medium 12 hours prior to the experiment and incubated for an additional 30 min at 22° C., washed,solubilized in 10-20% SDS, and associated radioactivity determined in a scintillation β-counter. The number of attached cells was quantitated by diving the cpm harvested by the cpm/cell. Under these experimental conditions, there was no aggregation of the various leukocyte subpopulations in the presence of the different plasma adhesive proteins, nor disruption of the HUVEC monolayers at any time interval tested, as judged by routine microscopic examination of the adhesion field. Data are the mean ± S.D. of triplicates from a representative experiment.
# Experimental conditions were the same as described in Example 9C1 except that the ^51Cr-labeled HL-60 cells were equilibrated with 40 μg/ml vitronectin or control protein transferrin and added to resting HUVEC for increasing time intervals between 10 and 60 minutes at 22° C. before measurement of leukocyte adhesion.
# Experimental conditions were the same as described in Example 9C1 except that the ^51Cr-labeled HL-60 cells were equilibrated with several concentrations of vitronectin ranging from 1.84 to 150 μg/ml and prior to incubation to resting HUVEC.
# HUVEC [3] = experiment: Iodinated D30 binding to HUVEC monolayers and its competition; set-up: species or system human; conditions: 50 fold molar excess of cold fibrinogen; myoglobin as nonspecific protein
# Experimental: Binding assays described above in Example 3A2) were also performed with the fibrinogen homolog, D30, to determine if that region of fibrinogen also immunoreacted with HUVEC. Since D30 was known to bind to leukocytes via the Mac-1 receptor as described by Altieri et al., J. Biol. Chem., 265:12119-12122 (1990), these experiments were performed to determine if regions of fibrinogen mediating the binding of leukocytes to HUVEC are contained within the D30 fragment. For this analysis, the D30 fragment of fibrinogen prepared in Example 1B was labelled with ^125I as described for labelling of fibrinogen above. Iodinated D30 was admixed to HUVEC monolayers at a concentration of 10 μg/ml to form a binding complex. After washing the cells to remove the unbound D30 as described in Example 3A2) above, the cells were solubilized and the amount of bound radioactivity was determined. The binding of D30 to HUVEC was maximal at 120 minutes of the maintenance period with approximately 60,000 cpm.
# HUVEC [4] = experiment: Inhibition of 125I-labelled fibrinogen binding to HUVEC by cold fibrinogen, anti-VNR antibodies and RGD/RGE peptides; set-up: species or system human; conditions: anti-VNR antibody 25 μg/ml, 20 minutes at 37° C. preincubation
# Experimental: Binding of ^125I-labelled fibrinogen binding to HUVEC assays were performed in the presence of 50 molar excess of unlabelled fibrinogen in order to confirm the specificity of binding as shown in Example 3A. The binding assay was performed as described in Example 3A with the exception that unlabelled fibrinogen was admixed to HUVEC at a 50 molar excess (approximately […] fibrinogen) concurrently with 50 μg/ml of ^125I-labelled fibrinogen. The protein-cell admixtures were maintained at 22° C. for 30 minutes to allow for binding of fibrinogen to HUVEC. In addition to cold fibrinogen, a 50 fold molar excess of BSA was separately admixed as a control. The amount of fibrinogen bound under the above conditions was quantitated as described in Example 3A. The uninhibited total binding of ^125I-labelled fibrinogen saturated after 30 minutes at approximately 4000 cpm per well. […] The binding of fibrinogen to the HUVEC surface fibrinogen receptor is therefore specific.
# The specificity of binding to an RGD-independent fibrinogen receptor was confirmed in competition assays performed as described above in the presence of monoclonal antibodies against the beta subunit of the RGD-dependent VNR and in the presence of RGD-containing peptides. For the assays in which the ability of anti-VNR monoclonal antibodies, designated mAb 609 and mAb 7E3, to inhibit the binding of ^125I-labelled fibrinogen to HUVEC, the antibodies were separately maintained at a concentration of 25 μg/ml with HUVEC for 20 minutes at 37° C. After the maintenance period, the antibody-treated HUVEC were washed once with serum-free RPMI 1640 to remove any unbound antibody. Labelled fibrinogen was then admixed to the treated HUVEC at a concentration of 50 μg/ml in the presence of 2.5 mM CaCl2 and […] PPack. The resultant admixtures were maintained for 10-30 minutes at 22° C. The fibrinogen-treated HUVEC were then washed, solubilized and counted as described in Example 3A.
# To confirm that the fibrinogen binding site on HUVEC was not RGD dependent, inhibition assays performed as described above for inhibiting with antibodies except that they were done in the presence of 1.0 mM of an RGD-containing peptide. A control RGE-containing peptide was also included in the assay. At selected time points over the time course of one hour, the HUVEC were harvested as described in Example 3A.
# Sequence of ICAM-1 (P05362 28-532): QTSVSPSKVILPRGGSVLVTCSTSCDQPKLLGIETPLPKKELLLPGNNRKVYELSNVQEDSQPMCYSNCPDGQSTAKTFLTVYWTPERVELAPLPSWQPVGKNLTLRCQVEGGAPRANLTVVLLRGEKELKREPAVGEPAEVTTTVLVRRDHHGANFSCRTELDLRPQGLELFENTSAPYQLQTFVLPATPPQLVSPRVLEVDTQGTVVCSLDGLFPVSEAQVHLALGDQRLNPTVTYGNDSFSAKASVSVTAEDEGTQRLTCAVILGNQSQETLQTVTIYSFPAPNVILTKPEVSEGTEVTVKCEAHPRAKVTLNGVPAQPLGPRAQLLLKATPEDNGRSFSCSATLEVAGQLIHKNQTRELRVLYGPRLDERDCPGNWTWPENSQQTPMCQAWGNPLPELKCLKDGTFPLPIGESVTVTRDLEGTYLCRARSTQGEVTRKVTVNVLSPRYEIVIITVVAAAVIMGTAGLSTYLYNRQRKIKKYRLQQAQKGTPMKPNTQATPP
# T1 sequence (P05362 28-532): as above
molecule,measurement,setting,value
KYGN^117NQKIVNLKEKVAQLEA^133 (KYGNNQKIVNLKEKVAQLEA; also: 125I radiolabel) [KYG-γ3],binding of 125I-labeled γ3 polypeptide to ICAM-1 CHO transfectants,"ICAM-1; 10-150 μg/ml, 1 mM CaCl2 and 1 mM MgCl2, 45 min at 22° C.",bound to ICAM-1 CHO transfectants in a specific and dose-dependent fashion
same,binding of 125I-labeled γ3 polypeptide to WT CHO cells,WT CHO cells,did not bind
"LGGAKQAGDV (OTHER INFORMATION: synthesized) [L10, reference compound]",adhesion of JY lymphocytes to immobilized peptide,ICAM-1+ JY lymphocytes,did not support lymphocyte adhesion at any concentration tested
same,JY lymphocyte adhesion to L10-coated plate (background),[1],did not support significant JY lymphocyte adhesion
NNQKIVNLKEKVAQLEA (OTHER INFORMATION: synthesized) [γ3],adhesion of JY lymphocytes to immobilized peptide,ICAM-1+ JY lymphocytes,strongly adhered
same,competition of 125I-labeled γ3 polypeptide binding,ICAM-1; 100-fold molar excess unlabeled peptide,competitively inhibited
fibronectin,adhesion of differentiated HL-60 cells to HUVEC relative to cells not equilibrated with an adhesive protein,HUVEC [2],did not result in an increase in adhesion
"Myoglobin: a nonspecific protein (protein, UniProt P68082 2-154, looked up) Myoglobin: GLSDGEWQQVLNVWGKVEADIAGHGQEVLIRLFTGHPETLEKFDKFKHLKTEAEMKASEDLKKHGTVVLTALGGILKKKGHHEAELKPLAQSHATKHKIPIKYLEFISDAIIHVLHSKHPGDFGADAQGAMTKALELFRNDIAAKYKELGFQG",competition of D30 binding to HUVEC,HUVEC [3],did not inhibit
"mAb 609: anti-VNR monoclonal antibody (antibody, V domains shown) VH: EVQLEESGGGLVKPGGSLKLSCAASGFAFSSYDMSWVRQIPEKRLEWVAKVSSGGGSTYYLDTVQGRFTISRDNAKNTLYLQMSSLNSEDTAMYYCARHNYGSFAYWGQGTLVTVSA VL: ELVMTQTPATLSVTPGDSVSLSCRASQSISNHLHWYQQKSHESPRLLIKYASQSISGIPSRFSGSGSGTDFTLSINSVETEDFGMYFCQQSNSWPHTFGGGTKLEIKRA",inhibition of 125I-labelled fibrinogen binding to HUVEC (FIG. 7),HUVEC [4],no inhibitory effect
"vitronectin: human vitronectin purchased from GIBCO or donated (protein, UniProt P04004 20-478, looked up) Vitronectin: DQESCKGRCTEGFNVDKKCQCDELCSYYQSCCTDYTAECKPQVTRGDVFTMPEDEYTVYDDGEEKNNATVHEQVGGPSLTSDLQAQSKGNPEQTPVLKPEEEAPAPEVGASKPEGIDSRPETLHPGRPQPPAEEELCSGKPFDAFTDLKNGSLFAFRGQYCYELDEKAVRPGYPKLIRDVWGIEGPIDAAFTRINCQGKTYLFKGSQYWRFEDGVLDPDYPRNISDGFDGIPDNVDAALALPAHSYSGRERVYFFKGKQYWEYQFQHQPSQEECEGSSLSAVFEHFAMMQRDSWEDIFELLFWGRTSAGTRQPQFISRDWHGVPGQVDAAMAGRIYISGMAPRPSLAKKQRFRHRNRKGYRSQRGHSRGRNQNSRRPSRATWLSLFSSEESNLGANNYDDYRMDWLVPATCEPIQSVFFFSGDKYYRVNLRTRRVDTVDPPYPRSIAQYWLGCPAPGHL",time and dose dependency of vitronectin-mediated increase in HL-60 adhesion,"HUVEC [2]; 10 to 60 minutes, 1.84 to 150 μg/ml",time-and dose-dependent manner
same,adhesion of differentiated HL-60 cells to HUVEC relative to cells not equilibrated with an adhesive protein,HUVEC [2],three to four-fold
same,vitronectin concentration at which increase in HL-60 adhesion was saturated,HUVEC [2]; vitronectin 1.84 to 150 μg/ml,50 µg/mL
